In US20200087347 (published 2020):
[ ]: non-standard residue; d: D form. N‑Me‑Lys‑pentyne = N-methyl-lysine carrying a pentyne (alkyne) group; Pro‑4‑NH‑hexyne = not defined here; dNMeF = CN[C@H](Cc1ccccc1)C(=O)O

B1: Compound 3 (peptide)
chain: cyclo(RGDL[dP]PSL)
SMILES: CC(C)C[C@@H]1NC(=O)[C@H](CO)NC(=O)[C@@H]2CCCN2C(=O)[C@H]2CCCN2C(=O)[C@H](CC(C)C)NC(=O)[C@H](CC(=O)O)NC(=O)CNC(=O)[C@H](CCCNC(=N)N)NC1=O
B2: Compound 6 (peptide)
chain: cyclo(RGDL[dNMeF]PAL)
SMILES: CC(C)C[C@@H]1NC(=O)[C@H](C)NC(=O)[C@@H]2CCCN2C(=O)[C@@H](Cc2ccccc2)N(C)C(=O)[C@H](CC(C)C)NC(=O)[C@H](CC(=O)O)NC(=O)CNC(=O)[C@H](CCCNC(=N)N)NC1=O
B3: Compound 11 (Table 1) (peptide)
chain: cyclo(RGDL[dP][N‑Me‑Lys‑pentyne]GL)
B4: Compound 13 (Table 1) (peptide)
chain: cyclo(RGDL[dP]PAF)
B5: Compound 5 (peptide)
chain: cyclo(RGDL[dP]PAH)
SMILES: CC(C)C[C@@H]1NC(=O)[C@H](CC(=O)O)NC(=O)CNC(=O)[C@H](CCCNC(=N)N)NC(=O)[C@H](Cc2c[nH]cn2)NC(=O)[C@H](C)NC(=O)[C@@H]2CCCN2C(=O)[C@H]2CCCN2C1=O
B6: Compound 10 (Table 1) (peptide)
chain: cyclo(RGDL[dP]PAA)
SMILES: CC(C)C[C@@H]1NC(=O)[C@H](CC(=O)O)NC(=O)CNC(=O)[C@H](CCCNC(=N)N)NC(=O)[C@H](C)NC(=O)[C@H](C)NC(=O)[C@@H]2CCCN2C(=O)[C@H]2CCCN2C1=O
B7: Compound 1 (peptide)
chain: cyclo(RGDL[dP]PAL)
SMILES: CC(C)C[C@@H]1NC(=O)[C@H](C)NC(=O)[C@@H]2CCCN2C(=O)[C@H]2CCCN2C(=O)[C@H](CC(C)C)NC(=O)[C@H](CC(=O)O)NC(=O)CNC(=O)[C@H](CCCNC(=N)N)NC1=O
B8: Compound 12 (Table 1) (peptide)
chain: cyclo(RGDL[dP][Pro‑4‑NH‑hexyne]GL)
modifications: reading uncertain
B9: Compound 7 (peptide)
chain: cyclo(RGDL[dP]PAL)
SMILES: CC(C)C[C@@H]1NC(=O)[C@H](C)NC(=O)[C@@H]2CCCN2C(=O)[C@H]2CCCN2C(=O)[C@H](CC(C)C)NC(=O)[C@H](CC(=O)O)NC(=O)CNC(=O)[C@H](CCCNC(=N)N)NC1=O
B10: Compound 4 (peptide)
chain: cyclo(RGDL[dP]PAY)
SMILES: CC(C)C[C@@H]1NC(=O)[C@H](CC(=O)O)NC(=O)CNC(=O)[C@H](CCCNC(=N)N)NC(=O)[C@H](Cc2ccc(O)cc2)NC(=O)[C@H](C)NC(=O)[C@@H]2CCCN2C(=O)[C@H]2CCCN2C1=O

Target: T1, integrin αvβ8 (human, UniProt P06756)
T1 chain 1: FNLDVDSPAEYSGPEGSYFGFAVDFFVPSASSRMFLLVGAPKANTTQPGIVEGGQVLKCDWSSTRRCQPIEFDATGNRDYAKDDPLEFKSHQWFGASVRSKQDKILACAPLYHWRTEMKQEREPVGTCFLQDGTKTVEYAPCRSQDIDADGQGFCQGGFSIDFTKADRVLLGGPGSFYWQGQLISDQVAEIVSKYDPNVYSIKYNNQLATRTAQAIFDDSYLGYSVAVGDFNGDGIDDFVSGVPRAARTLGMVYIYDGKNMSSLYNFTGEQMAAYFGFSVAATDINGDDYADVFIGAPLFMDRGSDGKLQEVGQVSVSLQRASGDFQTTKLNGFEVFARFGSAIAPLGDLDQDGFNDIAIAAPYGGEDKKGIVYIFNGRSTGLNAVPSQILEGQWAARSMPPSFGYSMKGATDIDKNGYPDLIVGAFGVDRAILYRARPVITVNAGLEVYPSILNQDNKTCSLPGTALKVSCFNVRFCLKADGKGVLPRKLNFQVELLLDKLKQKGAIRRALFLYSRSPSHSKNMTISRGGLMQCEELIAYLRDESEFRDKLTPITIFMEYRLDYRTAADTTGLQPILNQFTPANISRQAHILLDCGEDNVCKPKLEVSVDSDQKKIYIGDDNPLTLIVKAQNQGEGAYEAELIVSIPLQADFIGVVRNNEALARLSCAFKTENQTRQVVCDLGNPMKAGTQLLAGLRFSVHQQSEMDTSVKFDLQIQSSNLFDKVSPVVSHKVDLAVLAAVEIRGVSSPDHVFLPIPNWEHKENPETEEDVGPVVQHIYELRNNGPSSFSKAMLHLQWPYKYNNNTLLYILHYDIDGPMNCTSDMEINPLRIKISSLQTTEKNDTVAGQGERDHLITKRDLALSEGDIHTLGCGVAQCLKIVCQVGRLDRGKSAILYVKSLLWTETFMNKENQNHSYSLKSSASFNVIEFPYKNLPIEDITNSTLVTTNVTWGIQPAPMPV
T1 chain 2: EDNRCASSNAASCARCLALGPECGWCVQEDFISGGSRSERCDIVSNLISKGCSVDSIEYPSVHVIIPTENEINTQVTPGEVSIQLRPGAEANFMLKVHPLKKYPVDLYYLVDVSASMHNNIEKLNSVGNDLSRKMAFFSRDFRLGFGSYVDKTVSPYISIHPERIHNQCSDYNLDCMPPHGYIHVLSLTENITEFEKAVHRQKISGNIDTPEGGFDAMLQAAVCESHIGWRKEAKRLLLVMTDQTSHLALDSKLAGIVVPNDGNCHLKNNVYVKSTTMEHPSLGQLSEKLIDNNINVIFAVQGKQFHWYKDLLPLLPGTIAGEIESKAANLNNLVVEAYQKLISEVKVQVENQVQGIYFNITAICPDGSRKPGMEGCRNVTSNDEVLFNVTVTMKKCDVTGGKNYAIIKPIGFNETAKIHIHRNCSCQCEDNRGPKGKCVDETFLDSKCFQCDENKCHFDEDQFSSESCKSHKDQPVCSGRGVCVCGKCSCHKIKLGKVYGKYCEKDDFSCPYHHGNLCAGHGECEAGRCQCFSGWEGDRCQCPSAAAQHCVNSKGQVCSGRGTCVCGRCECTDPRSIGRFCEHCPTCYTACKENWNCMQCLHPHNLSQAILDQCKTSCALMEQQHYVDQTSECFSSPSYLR
Assay: competition
B1 was tested, and the IC50 was 12.5 nM.
B2 gave an IC50 of 9.4 nM.
Work on B3 yielded an IC50 of 1.7 nM.
B4 gave an IC50 of 1.83 nM.
B5 gave an IC50 of 2.2 nM.
B6 was tested, and the IC50 was 8.1 nM.
B7 gave an IC50 of 1.4 nM.
B8 gave an IC50 of 8.8 nM.
Work on B9 yielded an IC50 of 1.31 nM.
In the case of B10, the IC50 is reported as 1.1 nM.

Target: T2, integrin αvβ6 (human, UniProt P06756)
T2 chain 1: T1 chain 1
T2 chain 2: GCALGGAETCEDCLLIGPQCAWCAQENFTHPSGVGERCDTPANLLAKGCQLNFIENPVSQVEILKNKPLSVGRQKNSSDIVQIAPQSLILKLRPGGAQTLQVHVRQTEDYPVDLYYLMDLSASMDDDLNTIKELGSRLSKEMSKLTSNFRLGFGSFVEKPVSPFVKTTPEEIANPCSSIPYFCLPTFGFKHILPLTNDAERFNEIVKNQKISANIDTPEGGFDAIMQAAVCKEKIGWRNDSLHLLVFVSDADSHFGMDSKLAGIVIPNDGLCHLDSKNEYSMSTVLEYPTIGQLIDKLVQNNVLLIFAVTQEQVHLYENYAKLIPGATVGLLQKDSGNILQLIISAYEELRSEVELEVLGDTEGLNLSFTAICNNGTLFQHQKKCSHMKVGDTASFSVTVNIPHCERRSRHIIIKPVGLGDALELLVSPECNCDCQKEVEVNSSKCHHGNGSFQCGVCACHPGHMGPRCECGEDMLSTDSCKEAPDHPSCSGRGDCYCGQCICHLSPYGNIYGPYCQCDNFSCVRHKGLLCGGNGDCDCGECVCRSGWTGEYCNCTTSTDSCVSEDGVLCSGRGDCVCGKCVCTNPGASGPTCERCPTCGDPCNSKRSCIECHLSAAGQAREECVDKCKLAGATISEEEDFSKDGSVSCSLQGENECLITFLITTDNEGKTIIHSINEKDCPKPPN
Assay: competition
In the case of B1, the IC50 is reported as 187 nM.
In the case of B2, the IC50 is reported as 139 nM.
Work on B3 yielded an IC50 of 41 nM.
Work on B4 yielded an IC50 of 81 nM.
With B5 the IC50 was 171 nM.
With B6 the IC50 was 114 nM.
B7 was tested, and the IC50 was 84 nM.
In the case of B8, the IC50 is reported as 217 nM.
Binder B9 has an IC50 of 32 nM.
B10 showed an IC50 of 156 nM.
